Laboratory results reported in the nanobody polyreactivity screen of Harvey et al. (2022).

Assay: yeast display, Sf9 membrane polyspecificity reagent, FACS + sequencing; frameworks hold sequencing errors
Outline: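 In a synthetic yeast display library (Saccharomyces cerevisiae BJ5465), nanobody expression was induced with galactose for 36–48 hours. FACS gates were set low and high (top ~1%) using anti-HA fluorescence for expression and streptavidin fluorescence for binding of the Sf9 membrane reagent. Each polyreactivity label is drawn from the gate of origin.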

For “QVQLVESGGGLVQAGGSLRLSCAASGRTFYPNAMGWYRQAPGKERELVAAITWRSGSTYYADSVKGRFTISRDNAKNTVYLQMNSLKPEDTAVYYCNADSDYPYYPGKFDYWGQGTQVTVSS”, the “polyreactivity (PSR sort gate)” value was “low polyreactivity”.

In the case of “QVQLVESGGGLVQAGGSLRLSCAASGRTFYPNTMGWYRQAPGKERELVATITRSGGTTYADSVKGRFTISRDNAKNTVYLQMHSLKPEDTAVYYCNADQRRYYWLVSQRYDYWGQGTQVTVSS”, the “polyreactivity (PSR sort gate)” value is reported as “low polyreactivity”.

With “QVQLVESGGGLVQAGGSLRLSCAASGRTFYPYAMGWYRQAPGKERELVAAINRRGGSTYYADSVKGRFTISRDNAKNTVYLQMNSLKPEDTAVYYCAAKTTTPYRYIYYYWGQGTQVTVSS” the “polyreactivity (PSR sort gate)” value was “high polyreactivity”.

In the case of “QVQLVESGGGLVQAGGSLRLSCAASGRTFYPYAMGWYRQAPGKERELVAAITWSGGSTYYADSVKGRFTISRDNAKNTVYLQMNSLKPEDTAVYYCNATYEASFYYEYDYWGQGTQVTVSS”, the “polyreactivity (PSR sort gate)” value is reported as “low polyreactivity”.

With “QVQLVESGGGLVQAGGSLRLSCAASGRTFYRNAMGWSRQAPGKEREFVAVISVSGGSTYYADSVKGRFTISRDNAKNTVYLQMISLKPEDTAVYYCAKRGPVRQTANDYWGPGTQVTVSS” the “polyreactivity (PSR sort gate)” value was “low polyreactivity”.

For “QVQLVESGGGLVQAGGSLRLSCAASGRTFYRNAMGWYRQAPGKEREFVASIDWSGGSTYYADSVKGRFTISRDNAKNTVYLQMNSLKPEDTAVYYCAAELDYFPGYDYWGQGTQVTVSS”, the “polyreactivity (PSR sort gate)” value was “low polyreactivity”.

In the case of “QVQLVESGGGLVQAGGSLRLSCAASGRTFYRNAMGWYRQAPGKERELVAAITWSGVSTYYADSVKGRFTISRDNAKNTVYVQMNSQKPEDTAVYYCARGRVLRNGHYFQLRNYDYWGQGTQVTVSS”, the “polyreactivity (PSR sort gate)” value is reported as “high polyreactivity”.

For “QVQLVESGGGLVQAGGSLRLSCAASGRTFYRNAMGWYRQAPGKERELVASIRRNGGSTYYADSVKGRFTISRDNAKNTVYLQMNSLKPEDTAVYYCAAKFYWRGQSFRSGNFYWGQGTQVTVSS”, the “polyreactivity (PSR sort gate)” value was “high polyreactivity”.

For “QVQLVESGGGLVQAGGSLRLSCAASGRTFYRNVMGWYRQEPGKEREMVASIRTSGGSTYYADSVKGRFTISRDNAKNTVYLQMNSQKPEDTAVYYCATRVFVYPYRRYSHYDYWGLGTQVTVSS”, the “polyreactivity (PSR sort gate)” value was “high polyreactivity”.

With “QVQLVESGGGLVQAGGSLRLSCAASGRTFYRYAMGWYRQAAGTERELVAAISRSGGSTYYADSVKGRFTISRDHAKYTVYLQMNSLKPQDTAVYYCAAGYDGYKQGGGGYWGQGTQVTVSS” the “polyreactivity (PSR sort gate)” value was “high polyreactivity”.

For “QVQLVESGGGLVQAGGSLRLSCAASGRTFYRYAMGWYRQAPGKEREFVAAISGSGGRTYYADSVKGRFTISRDNAKNTVYLQMNSLKPEDTAVYYCNAYPHAYTGSTREGDYWGQGTQVTVSS”, the “polyreactivity (PSR sort gate)” value was “high polyreactivity”.

With “QVQLVESGGGLVQAGGSLRLSCAASGRTFYRYAMGWYRQAPGKEREFVATISRSGGSTFYADSVKGRFTISRDNAKNTVYLQMNSLKPEDTAVYYWAAVGWYPYQMVYWGQGTQVTVSS” the “polyreactivity (PSR sort gate)” value was “high polyreactivity”.

With “QVQLVESGGGLVQAGGSLRLSCAASGRTFYRYAMGWYRQAPGKERELVAAIRWSGGSTYYADSVKGRFTISRDNAKNTVYLQMNSLKPEDTAVYYCAARAIQLVDGRYKVRMDYWGQGTQVTVSS” the “polyreactivity (PSR sort gate)” value was “low polyreactivity”.

In the case of “QVQLVESGGGLVQAGGSLRLSCAASGRTFYRYVMGWYRQAPGKERELVAAIRSSGTSTYYADSVKGRFTISRDNAKNTVYLQMNSLKPEDTAVYYCARDSYRGYVYSLDYWGQGTQVTVSS”, the “polyreactivity (PSR sort gate)” value is reported as “high polyreactivity”.

With “QVQLVESGGGLVQAGGSLRLSCAASGRTFYSNAMGWYRQAPGKERELVAAITFGGGSTYYADSVKGRFTISRDNAKNTVYVQMNSLKPEDTAVYYCAAEGYKYRFYYWGQGTQVTVSS” the “polyreactivity (PSR sort gate)” value was “low polyreactivity”.

For “QVQLVESGGGLVQAGGSLRLSCAASGRTFYSNAMGWYRQAPGKERELVASISYGGGTTHYADSVKGRFTISRDNAKNTVYLQINSVKPEDTAVYYCAADPEHQWESVTIGEYDYWGQGTQVTVSS”, the “polyreactivity (PSR sort gate)” value was “low polyreactivity”.

With “QVQLVESGGGLVQAGGSLRLSCAASGRTFYSNAMGWYRQAPGKERELVATISSGGSTNYADSVKGRFTISRDNAKNTVYLQMNSLKPEDTAVYYCATRPDRINDYWGQGTQVTVSS” the “polyreactivity (PSR sort gate)” value was “low polyreactivity”.

With “QVQLVESGGGLVQAGGSLRLSCAASGRTFYSNVMGWYRQAPGKERELVAAISSSTYYADSVKGRFTISRDNANNTVYLQMNSLKPEDTAVYYCAAYSRYYPYYRYGYLGQGTQVTVSS” the “polyreactivity (PSR sort gate)” value was “high polyreactivity”.

For “QVQLVESGGGLVQAGGSLRLSCAASGRTFYSYAIGWYREAPGKERELVASISSGGGTNYADSVKGRFTISRDNAKNTVYLQMNSLKPDDTAVYYCAAKYWIFYPYDYWGQGTQVTVSS”, the “polyreactivity (PSR sort gate)” value was “low polyreactivity”.

In the case of “QVQLVESGGGLVQAGGSLRLSCAASGRTFYSYAMGWSRQAPGKERELVAAISRAGGTYYADSVKGRFTLSRDNAKNTVYLQMNSLKPEDTAVYYCAARQAVYGLRSDFYYWGQGTQVTVSS”, the “polyreactivity (PSR sort gate)” value is reported as “high polyreactivity”.

In the case of “QVQLVESGGGLVQAGGSLRLSCAASGRTFYSYAMGWYRKAPGKERELVAAISASGGRTYYADSVKGRFTISRDNAKNTVYLQMNSLKPEDTAVYYCAAYPWYRMWGQGTQVTVSS”, the “polyreactivity (PSR sort gate)” value is reported as “high polyreactivity”.

In the case of “QVQLVESGGGLVQAGGSLRLSCAASGRTFYSYAMGWYRQAPGKERELVAAISFRDGRTYYADSVKGRFTISRDNAKNTVYLQMNSLKPEDTAVYYCAAQLSHYYSLYYYWGQGTQVTVSS”, the “polyreactivity (PSR sort gate)” value is reported as “high polyreactivity”.

In the case of “QVQLVESGGGLVQAGGSLRLSCAASGRTFYSYAMGWYRQAPGKERELVAAISRSGNTYYADSVKGRFTISRDNAKNTVYLQMNSLKPEDTAVYYCAAYYWWGYPENDYWGQGTQVTVSS”, the “polyreactivity (PSR sort gate)” value is reported as “high polyreactivity”.

With “QVQLVESGGGLVQAGGSLRLSCAASGRTFYSYVMGWSRQAPGKERELVAAISQSGGNTYYADSVKGRFTISRDNAKNTVYLQMNSLKPEDTAVYYCAAGGVLTSWFGQEYEYYYWGQGTQVTVSS” the “polyreactivity (PSR sort gate)” value was “high polyreactivity”.

In the case of “QVQLVESGGGLVQAGGSLRLSCAASGRTFYTNAMGCYRQAPGKERELVARIRRGGTTNYADSVKGRFTISRDNAKNTVYLQMNSLKPEDTAVYYCSYSYGYWGQGTQVTVSS”, the “polyreactivity (PSR sort gate)” value is reported as “high polyreactivity”.

In the case of “QVQLVESGGGLVQAGGSLRLSCAASGRTFYTNVMGWYRQAPGKERELVAAITTSSSRTYYADSVKGRFTISRDNAKNTVYLQMNSLKPEDTAVYYCAARIHGSWSFDYWGQGTQVTVSS”, the “polyreactivity (PSR sort gate)” value is reported as “low polyreactivity”.

For “QVQLVESGGGLVQAGGSLRLSCAASGRTFYTYGMGWYRQAPGKERELVAAITETGDSTYYADSVKGRFTISRDNAKNTVYLQMNSLKPEDTAVYYCAADYRAPLDYWGQGTQVTVSS”, the “polyreactivity (PSR sort gate)” value was “low polyreactivity”.

For “QVQLVESGGGLVQAGGSLRLSCAASGRTFYVNAMGWYRQAHGKERELVASITSGGSTYYADSVKGRFTISRDNAKNTVYLQMNSLKPEDTAVYYCAARWVQRLRHYIFYYWGQGTQGTVSS”, the “polyreactivity (PSR sort gate)” value was “high polyreactivity”.

In the case of “QVQLVESGGGLVQAGGSLRLSCAASGRTFYVNAMGWYRQAPGKERELVATITDRGGRTYYADSVKGRFTISRDNAKNTVYLQMNSLKPEDTAVYYCAATRWYEVDYWGQGTQVTVSS”, the “polyreactivity (PSR sort gate)” value is reported as “low polyreactivity”.

With “QVQLVESGGGLVQAGGSLRLSCAASGRTFYVNTMGWYRQAHGKEKDLVARITRGGSTYYADSVKGRFTISRDNAKNTVYLQMNSLKPEDTAVYYCATDHFPVYSTHVIYEFDYWGQGTQVTVSS” the “polyreactivity (PSR sort gate)” value was “low polyreactivity”.

With “QVQLVESGGGLVQAGGSLRLSCAASGRTFYVNTMRWYRQAPGKEREFVARITRGGSTYYADSVKGRFTISRDNAMNTVYLEMNSLKPEDTAFYYCGTDHFPVYSTHVIYEFDYWGQGTQVTVSS” the “polyreactivity (PSR sort gate)” value was “low polyreactivity”.

In the case of “QVQLVESGGGLVQAGGSLRLSCAASGRTFYWNAMGWYRQAPGKERELVAAITRNGGSTYYADSVKGRFTISRDNAKNNVYLQMNSLKPEDTAVYYCAARKRYGAGYDYWGQGTQVTVSS”, the “polyreactivity (PSR sort gate)” value is reported as “high polyreactivity”.

In the case of “QVQLVESGGGLVQAGGSLRLSCAASGRTFYWNAMGWYRQAPGKERELVAGISRGGGITYYADSVKGRFTISRDNAKYTVYLQMNSLKPEDTAVYYCNSRAGRQLARYGYWGQGTQVTVSS”, the “polyreactivity (PSR sort gate)” value is reported as “high polyreactivity”.

For “QVQLVESGGGLVQAGGSLRLSCAASGRTFYWNAMGWYRQAPGKERELVASINGGGSTYYADSVKGRFTISRDNAKNTVYLKMNSLKPEDTAVYYCNTSYIIWYDSWGQGTQVTVSS”, the “polyreactivity (PSR sort gate)” value was “low polyreactivity”.

For “QVQLVESGGGLVQAGGSLRLSCAASGRTFYWYAMGWYRQAPGKERELVAAITSGGSTNYADSVKGRFTISRDNAKNTVYLQMNSLKPEDTAVYYCAARRSVRRGGDYYWGQGTQVTVSS”, the “polyreactivity (PSR sort gate)” value was “high polyreactivity”.

For “QVQLVESGGGLVQAGGSLRLSCAASGRTFYWYTMGWYRQAPGKERELVAAISIGGITSYADSVKGRFTISRDNAKNTVYLQMNSLKPEDTAVYYCAAESACSRPYFNSIHRRDSWGQGTQVTVSS”, the “polyreactivity (PSR sort gate)” value was “low polyreactivity”.

For “QVQLVESGGGLVQAGGSLRLSCAASGRTFYYAMGWYRQAPGKERELVAAISWSGGRTYYADSVKARFTISRDNAKNTVYLQMNSLKPEDTAVYFCAAIYYYSPRDGFIYWGQGTQVTVSS”, the “polyreactivity (PSR sort gate)” value was “high polyreactivity”.

In the case of “QVQLVESGGGLVQAGGSLRLSCAASGRTFYYAMGWYRQAPGKERELVAAITSSSSTYYADSVKGRFTISRDNAKNTVYLQLNSVKPEDTAVYYCNAADDPYGSPSYGYDYWGQGTQVTVSS”, the “polyreactivity (PSR sort gate)” value is reported as “low polyreactivity”.

For “QVQLVESGGGLVQAGGSLRLSCAASGRTFYYNGMAWYRQAPGKERELVAAITSGGTTTYADSVKGLFTISRDNAKNSVYLQMNSVKPEETAVYYSNADYWAVNYDYCGQGTQVTVSS”, the “polyreactivity (PSR sort gate)” value was “low polyreactivity”.

In the case of “QVQLVESGGGLVQAGGSLRLSCAASGRTFYYNTMGWYRQAPGKERELVAAISWRTGSTYYADSVKGRFTISRDNAKNTVYLQMNSLKPEDTAVYYCAAVLFGYPRTIGTWYDRYYYWGQGTQVTVSS”, the “polyreactivity (PSR sort gate)” value is reported as “high polyreactivity”.

In the case of “QVQLVESGGGLVQAGGSLRLSCAASGRTFYYNTMGWYRQAPGKERELVASITSGSSTYYADSVKGRFTISRDNAKNTVYLQMNSLKPEDTEVYYCAVYRRYSVKYHYGYWGQGTQVTVSS”, the “polyreactivity (PSR sort gate)” value is reported as “high polyreactivity”.

For “QVQLVESGGGLVQAGGSLRLSCAASGRTFYYNTMGWYRQAPGKERELVATITSSGGRTYYADSVKGRFTISRDNAKNTVYLQMNSLKPEDTAVYYCNAALSRAFKHSTGYDYWGQGTQVTVSS”, the “polyreactivity (PSR sort gate)” value was “low polyreactivity”.

In the case of “QVQLVESGGGLVQAGGSLRLSCAASGRTFYYYALGWYRQAPGKERELVAVIRSSGDSTYYADSVKGRFTISRDNANNTVYLQMNSLKPEDTAVYYCNADPGEVLVGYDYWGQGTQVTVSS”, the “polyreactivity (PSR sort gate)” value is reported as “low polyreactivity”.
